The target in test [1] is Phosphorylated SARS-CoV-2 Nucleocapsid protein (pN), full length, phosphorylated in vitro with GSK-3β and SRPK1 (SARS-CoV-2) (UniProt P0DTC9). As to the kind of experiment: […]; 20 mM Tris-HCl, 150 mM NaCl, pH 7.5, 37 °C.
Test [2] has as its target SARS-CoV-2 Nucleocapsid protein (N), full length, unmodified (SARS-CoV-2) (UniProt P0DTC9). Description: […]; 20 mM Tris-HCl, 150 mM NaCl, pH 7.5, 37 °C.
Test [3] has as its target non-structural protein 3 (Nsp3) ubiquitin-like domain 1 (Ubl1), 1-111.
Test [4] has as its target Membrane (M) protein C-terminal endodomain, 104-222 (UniProt P0DTC5).

Take “6xHis-GFP-M^104-222, C-terminal endodomain of the SARS-CoV-2 Membrane (M) protein (from UniProt P0DTC5 104-222) (domain or fragment)”: the partition coefficient in test [1] stood at 0.3; in test [2] it was 9.8.

In the case of “6xHis-GFP-Nsp3^1-111, ubiquitin-like domain 1 (Ubl1) of SARS-CoV-2 non-structural protein 3 (Nsp3) (domain or fragment)”, the partition coefficient in test [1] amounted to 2.2; in test [2], 12.6.

“Nucleocapsid protein (N) (from UniProt P0DTC9)”: the “other: partition coefficient” value in test [3] is recorded as “weaker; reference 12.6 ± 0.1”; in test [4] it was “lost; reference 9.8 ± 0.3”.

The values above are taken from PMC12381204.
